Measured values published in paper PMC3041740, “Interplay between HIV Entry and Transportin-SR2 Dependency” (Retrovirology, 2011).

T1: GST-TRN-SR2 (transportin-SR2) (UniProt Q9Y5L0-2 1-923)
T1 construct: transportin-SR2 (TRN-SR2, TNPO3, transportin 3); also called TNPO3; transportin 3; source: recombinant, expressed from pGEX-6P-2, purified using Glutathione Sepharose Resin
T1 sequence (looked up): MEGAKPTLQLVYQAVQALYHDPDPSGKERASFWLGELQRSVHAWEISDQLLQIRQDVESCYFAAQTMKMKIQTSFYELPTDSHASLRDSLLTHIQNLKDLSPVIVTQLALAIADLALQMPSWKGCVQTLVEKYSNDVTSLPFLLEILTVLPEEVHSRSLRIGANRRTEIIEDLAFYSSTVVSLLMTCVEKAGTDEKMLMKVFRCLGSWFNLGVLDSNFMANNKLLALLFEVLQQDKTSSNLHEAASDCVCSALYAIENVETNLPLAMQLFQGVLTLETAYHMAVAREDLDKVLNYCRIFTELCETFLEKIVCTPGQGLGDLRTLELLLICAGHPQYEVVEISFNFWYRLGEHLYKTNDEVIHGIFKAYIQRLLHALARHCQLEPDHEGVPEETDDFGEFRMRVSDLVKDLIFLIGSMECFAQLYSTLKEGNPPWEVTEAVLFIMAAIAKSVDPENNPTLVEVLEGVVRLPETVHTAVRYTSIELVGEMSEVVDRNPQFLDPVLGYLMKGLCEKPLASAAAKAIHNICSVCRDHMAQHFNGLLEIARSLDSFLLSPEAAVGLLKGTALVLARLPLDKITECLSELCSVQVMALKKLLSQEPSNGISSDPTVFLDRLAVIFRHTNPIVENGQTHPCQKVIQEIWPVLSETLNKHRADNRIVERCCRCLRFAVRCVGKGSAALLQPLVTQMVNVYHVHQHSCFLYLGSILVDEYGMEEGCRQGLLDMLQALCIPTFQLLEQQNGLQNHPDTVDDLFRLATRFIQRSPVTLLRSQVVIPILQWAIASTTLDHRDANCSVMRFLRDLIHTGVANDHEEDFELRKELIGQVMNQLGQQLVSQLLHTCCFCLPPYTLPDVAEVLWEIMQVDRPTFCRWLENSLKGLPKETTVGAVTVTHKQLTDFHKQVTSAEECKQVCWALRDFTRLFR

B1: MLV integrase, C-terminally His6-tagged (enzyme)
chain: IENSSPYTSEHFHYTVTDIKDLTKLGAIYDKTKKYWVYQGKPVMPDQFTFELLDFLHQLTHLSFSKMKALLERSHSPYYMLNRDRTLKNITETCKACAQVNASKSAVKQGTRVRGHRPGTHWEIDFTEIKPGLYGYKYLLVFIDTFSGWIEAFPTKKETAKVVTKKLLEEIFPRFGMPQVLGTDNGPAFVSKVSQTVADLLGIDWKLHCAYRPQSSGQVERMNRTIKETLTKLTLATGSRDWVLLLPLALYRARNTPGPHGLTPYEILYGAPPPLVNFPDPDMTRVTNSPSLQAHLQALYLVQHEVWRPLAAAYQEQLDRPVVPHPYRVGDTVWVRRHQTKNLEPRWKGPYTVLLTTPTALKVDGIAAWIHAAHVKAADPGGGPSSRLTWRVQRSQNPLKIRLTREAP
notes: integrase (IN) of murine leukemia virus (MLV); also called His6-tagged MLV IN; not shown: His6, C-terminal, kept
B2: HIV-1 integrase, C-terminally His6-tagged (enzyme)
chain: FLDGIDKAQEEHEKYHSNWRAMASDFNLPPVVAKEIVASCDKCQLKGEAMHGQVDCSPGIWQLDCTHLEGKVILVAVHVASGYIEAEVIPAETGQETAYFLLKLAGRWPVKTVHTDNGSNFTSTTVKAACWWAGIKQEFGIPYNPQSQGVIESMNKELKKIIGQVRDQAEHLKTAVQMAVFIHNFKRKGGIGGYSAGERIVDIIATDIQTKELQKQITKIQNFRVYYRDSRDPVWKGPAKLLWKGEGAVVIQDNSDIKVVPRRKAKIIRDYGKQMAGDDCVASRQDED

Biological target: T1, GST-TRN-SR2 (transportin-SR2)
Experiment: AlphaScreen or HTRF; 10 nM GST-TRN-SR2 titrated with 1 to 150 nM His6-tagged protein; glutathione donor and nickel-chelate acceptor beads; 25 mM Tris/HCl pH 7.4, 150 mM NaCl, 1 mM MgCl2, 0.1% Tween-20, 0.1% BSA; 1 h at 4°C, then 1.5 h at room temperature with beads; apparent Kd
Details: both partners purified

Binder | Kd [nM]
B1 | 17.5 ± 0.5
B2 | 36.3 ± 2.3
